Residue numbers refer to the chain shown, from its start.
Legend:
[1] = target: T1, human EpCAM (epithelial cell adhesion/activating molecule) (human, UniProt P16422 24-314); assay: cell-based or functional assay
T1 sequence: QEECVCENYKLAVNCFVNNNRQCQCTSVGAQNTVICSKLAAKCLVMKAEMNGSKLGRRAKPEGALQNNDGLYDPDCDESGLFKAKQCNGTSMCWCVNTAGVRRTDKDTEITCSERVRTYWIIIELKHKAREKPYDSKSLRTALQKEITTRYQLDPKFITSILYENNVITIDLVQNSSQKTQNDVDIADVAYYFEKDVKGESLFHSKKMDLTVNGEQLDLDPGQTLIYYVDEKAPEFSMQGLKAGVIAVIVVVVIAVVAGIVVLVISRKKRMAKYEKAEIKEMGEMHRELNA

EGFI-Cr1 Q24A = target: T2, EGFI-Cr1 Q24A (human, UniProt P16422 25-63); assay: direct ELISA, coated EGFI-Cr1 fusion, 0.1 µg/ml antibody
T2 construct: not shown: The fused constant region of human immunoglobulin gamma 1 heavy chain (Cr1)
T2 chain: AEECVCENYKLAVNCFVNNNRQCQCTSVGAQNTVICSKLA

EGFI-Cr1 T49A = target: T3, EGFI-Cr1 T49A (human, UniProt P16422 24-63); assay: as above
T3 construct: not shown: the constant region of human immunoglobulin gamma 1 heavy chain (Cr1) fused at the C-terminus
T3 chain: T2 chain with A1Q, T26A

EGFI-Cr1 E25K = target: T4, EGFI-Cr1 E25K (human, UniProt P16422 24-63); assay: as above
T4 construct: not shown: The fused constant region of human immunoglobulin gamma 1 heavy chain (Cr1)
T4 chain: T2 chain with A1Q, E2K

EGFI-Cr1 E26D = target: T5, EGFI-Cr1 E26D (human, UniProt P16422 24-63); assay: as above
T5 construct: not shown: The fused constant region of human immunoglobulin gamma 1 heavy chain (Cr1)
T5 chain: T2 chain with A1Q, E3D

EGFI-Cr1 R44G = target: T6, EGFI-Cr1 R44G (human, UniProt P16422 24-63); assay: as above
T6 construct: not shown: the constant region of human immunoglobulin gamma 1 heavy chain (Cr1) fused at the C-terminus
T6 chain: T2 chain with A1Q, R21G

[2] = target: T7, EGFI-Cr1 wild type (first EGF-like repeat of human EpCAM fused to the constant region of human immunoglobulin … (human, UniProt P01857-1 99-330 = IgG part)); assay: as above
T7 construct: cDNA covered aa 1-63; Expressed in COS-7 cells; also called WT; EpCAM EGF-1 fusion protein WT

EGFI-Cr1 Q45A = target: T8, EGFI-Cr1 Q45A (human, UniProt P16422 24-63); assay: as above
T8 construct: not shown: the constant region of human immunoglobulin gamma 1 heavy chain (Cr1) fused at the C-terminus
T8 chain: T2 chain with A1Q, Q22A

EGFI-Cr1 N42E = target: T9, EGFI-Cr1 N42E (human, UniProt P16422 24-63); assay: as above
T9 construct: not shown: the constant region of human immunoglobulin gamma 1 heavy chain (Cr1) fused at the C-terminus
T9 chain: T2 chain with A1Q, N19E

EGFI-Cr1 Q47A = target: T10, EGFI-Cr1 Q47A (human, UniProt P16422 24-63); assay: as above
T10 construct: not shown: the constant region of human immunoglobulin gamma 1 heavy chain (Cr1) fused at the C-terminus
T10 chain: T2 chain with A1Q, Q24A

EGFI-Cr1 A35T = target: T11, EGFI-Cr1 A35T (human, UniProt P16422 24-63); assay: as above
T11 construct: not shown: The fused constant region of human immunoglobulin gamma 1 heavy chain (Cr1)
T11 chain: T2 chain with A1Q, A12T

EGFI-Cr1 N41A = target: T12, EGFI-Cr1 N41A (human, UniProt P16422 24-63); assay: as above
T12 construct: not shown: The fused constant region of human immunoglobulin gamma 1 heavy chain (Cr1)
T12 chain: T2 chain with A1Q, N18A

EGFI-Cr1 N43A = target: T13, EGFI-Cr1 N43A (human, UniProt P16422 24-63); assay: as above
T13 construct: not shown: the constant region of human immunoglobulin gamma 1 heavy chain (Cr1) fused at the C-terminus
T13 chain: T2 chain with A1Q, N20A

EGFI-Cr1 F39A = target: T14, EGFI-Cr1 F39A (human, UniProt P16422 24-63); assay: as above
T14 construct: not shown: The fused constant region of human immunoglobulin gamma 1 heavy chain (Cr1)
T14 chain: T2 chain with A1Q, F16A

EGFI-Cr1 N37R = target: T15, EGFI-Cr1 N37R (human); assay: as above
T15 construct: not shown: The fused constant region of human immunoglobulin gamma 1 heavy chain (Cr1)
T15 chain: T2 chain with A1Q, N14R

EGFI-Cr1 V40E = target: T16, EGFI-Cr1 V40E (human); assay: as above
T16 construct: not shown: The fused constant region of human immunoglobulin gamma 1 heavy chain (Cr1)
T16 chain: T2 chain with A1Q, V17E

[3] = target: T1, human EpCAM (epithelial cell …); assay: cell-based or functional assay; remark: listed apart in the source
[4] = target: T1, human EpCAM (epithelial cell …); assay: flow cytometry, CHO/EpCAM cells, 0.1 µg/ml antibody
Experimental: A 300× dilution of human cell hyper-immune serum (HPS 300×) was used as binding positive control for both cell lines here. After 1 hr incubation at 4° C., cells were washed twice with 200 μl FACS buffer (1×PBS containing 1% FBS), stained with 100 μl of 1 μg/ml goat-anti-mouse IgG-PE (Southern Biotech, Cat. No. 1032-09) in FACS buffer and then incubated at 4° C. for 30 min. Cells were washed thrice with FACS buffer and analyzed by flow cytometry (BD LSR, BD Life Sciences).

B1: murine monoclonal antibody 6D11 (antibody, mouse IgG1, V domains shown)
VH: EVQLVESGGDLVKPGGSLKLSCAASGFAFDSYGMSWIRQTPGTRLEWVATISSGGYYTYYEDNVKGRFIISRDNAKNTLDLQMSGLKSEDAATYYCARRGNYDVDYYAMDYWGQGTSVIVSS
VL: DVVLTQIPLSLPVSLGDQASISCRSSQSLEHSNGNTYLHWYLQKPGQSPKLLIYKVSNRFSGVPDRFSGSGSGTDFTLKISRVEAEDLGVYFCSQSTHVPPWTFGGGTKLEFKR
notes: Mouse IgG1, kappa, from hybridoma; also called m338-6D11.8
[1]
  % Annexin V/PI-positive cells, DLD-1, 1.0 µg/ml mAb: 28%
  % Annexin V/PI-positive cells, DLD-1, 3.0 µg/ml mAb: 53%
  % Annexin V/PI-positive cells, DLD-1, 10 µg/ml mAb: 62%
  % Annexin V/PI-positive cells, FaDu, 1.0 µg/ml mAb: 26%
  % Annexin V/PI-positive cells, FaDu, 3.0 µg/ml mAb: 39%
  % Annexin V/PI-positive cells, FaDu, 10 µg/ml mAb: 37%
  % Annexin V/PI-positive cells, LNCaP, 1.0 µg/ml mAb: 38%
  % Annexin V/PI-positive cells, LNCaP, 3.0 µg/ml mAb: 43%
  % Annexin V/PI-positive cells, LNCaP, 10 µg/ml mAb: 44%
  % Annexin V/PI-positive cells, NCI-H520, 1.0 µg/ml mAb: 38%
  % Annexin V/PI-positive cells, NCI-H520, 3.0 µg/ml mAb: 42%
  % Annexin V/PI-positive cells, NCI-H520, 10 µg/ml mAb: 49%
  % Annexin V/PI-positive cells, NCI-N87, 1.0 µg/ml mAb: 41%
  % Annexin V/PI-positive cells, NCI-N87, 3.0 µg/ml mAb: 51%
  % Annexin V/PI-positive cells, NCI-N87, 10 µg/ml mAb: 57%
  % Annexin V/PI-positive cells, NIH:OVCAR-3, 1.0 µg/ml mAb: 46%
  % Annexin V/PI-positive cells, NIH:OVCAR-3, 3.0 µg/ml mAb: 52%
  % Annexin V/PI-positive cells, NIH:OVCAR-3, 10 µg/ml mAb: 55%
  % Annexin V/PI-positive cells, T-47D, 1.0 µg/ml mAb: 25%
  % Annexin V/PI-positive cells, T-47D, 3.0 µg/ml mAb: 40%
  % Annexin V/PI-positive cells, T-47D, 10 µg/ml mAb: 44%
EGFI-Cr1 Q24A
  relative binding activity (% of WT): 47%
EGFI-Cr1 T49A
  relative binding activity (% of WT): 67%
EGFI-Cr1 E25K
  relative binding activity (% of WT): 4%
EGFI-Cr1 E26D
  relative binding activity (% of WT): 57%
EGFI-Cr1 R44G
  relative binding activity (% of WT): 2%
[2]
  relative binding activity (% of WT): 100%
EGFI-Cr1 Q45A
  relative binding activity (% of WT): 8%
EGFI-Cr1 N42E
  relative binding activity (% of WT): 83%
EGFI-Cr1 Q47A
  relative binding activity (% of WT): 33%
EGFI-Cr1 A35T
  relative binding activity (% of WT): 39%
EGFI-Cr1 N41A
  relative binding activity (% of WT): 2%
EGFI-Cr1 N43A
  relative binding activity (% of WT): 65%
EGFI-Cr1 F39A
  relative binding activity (% of WT): 23%
EGFI-Cr1 N37R
  relative binding activity (% of WT): 69%
EGFI-Cr1 V40E
  relative binding activity (% of WT): 2%
[3]
  % of Annexin V + PI staining (untreated background subtracted), NCI-H358, 10 µg/ml mAb, Exp1: 45%
  % of Annexin V + PI staining (untreated background subtracted), NCI-H358, 10 µg/ml mAb, Exp2: 40%
  % of Annexin V + PI staining (untreated background subtracted), NCI-H358, 10 µg/ml mAb, Exp3: 44%
  % of Annexin V + PI staining (untreated background subtracted), NCI-H358, 10 µg/ml mAb, Exp4: 43%
  % of Annexin V + PI staining (untreated background subtracted), NCI-H358, 10 µg/ml mAb, Exp5: 40%
[4]
  MFI: 1350 MFI

B2: murine monoclonal antibody 4D2 (antibody, mouse IgG1, V domains shown)
VH: B1 VH with I37V, T43K, E61Q, N63S, I69T, I70T, G85S, A91S, T93I, I119T
VL: B1 VL with L4M, I7T, E30V, K79R, F112I
notes: Mouse IgG1, kappa, from hybridoma; also called m338-4D2.20
[1]
  % Annexin V/PI-positive cells, DLD-1, 1.0 µg/ml mAb: 31%
  % Annexin V/PI-positive cells, DLD-1, 3.0 µg/ml mAb: 51%
  % Annexin V/PI-positive cells, DLD-1, 10 µg/ml mAb: 62%
  % Annexin V/PI-positive cells, FaDu, 1.0 µg/ml mAb: 37%
  % Annexin V/PI-positive cells, FaDu, 3.0 µg/ml mAb: 43%
  % Annexin V/PI-positive cells, FaDu, 10 µg/ml mAb: 46%
  % Annexin V/PI-positive cells, LNCaP, 1.0 µg/ml mAb: 49%
  % Annexin V/PI-positive cells, LNCaP, 3.0 µg/ml mAb: 52%
  % Annexin V/PI-positive cells, LNCaP, 10 µg/ml mAb: 50%
  % Annexin V/PI-positive cells, NCI-H520, 1.0 µg/ml mAb: 24%
  % Annexin V/PI-positive cells, NCI-H520, 3.0 µg/ml mAb: 30%
  % Annexin V/PI-positive cells, NCI-H520, 10 µg/ml mAb: 32%
  % Annexin V/PI-positive cells, NCI-N87, 1.0 µg/ml mAb: 49%
  % Annexin V/PI-positive cells, NCI-N87, 3.0 µg/ml mAb: 52%
  % Annexin V/PI-positive cells, NCI-N87, 10 µg/ml mAb: 55%
  % Annexin V/PI-positive cells, NIH:OVCAR-3, 1.0 µg/ml mAb: 40%
  % Annexin V/PI-positive cells, NIH:OVCAR-3, 3.0 µg/ml mAb: 51%
  % Annexin V/PI-positive cells, NIH:OVCAR-3, 10 µg/ml mAb: 56%
  % Annexin V/PI-positive cells, T-47D, 1.0 µg/ml mAb: 35%
  % Annexin V/PI-positive cells, T-47D, 3.0 µg/ml mAb: 44%
  % Annexin V/PI-positive cells, T-47D, 10 µg/ml mAb: 45%
EGFI-Cr1 Q24A
  relative binding activity (% of WT): 41%
EGFI-Cr1 T49A
  relative binding activity (% of WT): 63%
EGFI-Cr1 E25K
  relative binding activity (% of WT): 2%
EGFI-Cr1 E26D
  relative binding activity (% of WT): 52%
EGFI-Cr1 R44G
  relative binding activity (% of WT): 1%
[2]
  relative binding activity (% of WT): 100%
EGFI-Cr1 Q45A
  relative binding activity (% of WT): 4%
EGFI-Cr1 N42E
  relative binding activity (% of WT): 82%
EGFI-Cr1 Q47A
  relative binding activity (% of WT): 23%
EGFI-Cr1 A35T
  relative binding activity (% of WT): 27%
EGFI-Cr1 N41A
  relative binding activity (% of WT): 0%
EGFI-Cr1 N43A
  relative binding activity (% of WT): 57%
EGFI-Cr1 F39A
  relative binding activity (% of WT): 11%
EGFI-Cr1 N37R
  relative binding activity (% of WT): 64%
EGFI-Cr1 V40E
  relative binding activity (% of WT): 1%
[3]
  % of Annexin V + PI staining (untreated background subtracted), NCI-H358, 10 µg/ml mAb, Exp1: 43%
  % of Annexin V + PI staining (untreated background subtracted), NCI-H358, 10 µg/ml mAb, Exp2: 41%
  % of Annexin V + PI staining (untreated background subtracted), NCI-H358, 10 µg/ml mAb, Exp3: 45%
  % of Annexin V + PI staining (untreated background subtracted), NCI-H358, 10 µg/ml mAb, Exp4: 46%
  % of Annexin V + PI staining (untreated background subtracted), NCI-H358, 10 µg/ml mAb, Exp5: 43%
[4]
  MFI: 1740 MFI
